B1: HaloTag (HT) alone (enzyme, Rhodococcus rhodochrous, UniProt P0A3G2 1-293, looked up)
chain: MSEIGTGFPFDPHYVEVLGERMHYVDVGPRDGTPVLFLHGNPTSSYLWRNIIPHVAPSHRCIAPDLIGMGKSDKPDLDYFFDDHVRYLDAFIEALGLEEVVLVIHDWGSALGFHWAKRNPERVKGIACMEFIRPIPTWDEWPEFARETFQAFRTADVGRELIIDQNAFIEGALPMGVVRPLTEVEMDHYREPFLKPVDREPLWRFPNELPIAGEPANIVALVEAYMNWLHQSPVPKLLFWGTPGVLIPPAEAARLAESLPNCKTVDIGPGLFLLQEDNPDLIGSEIARWLPAL
notes: Control bait without a fused partner, covalently captured on HaloLink resin; also called mutant dehalogenase protein
B2: GST-Frb (other)
chain: ILWHEMWHEGLEEASRLYFGERNVKGMFEVLEPLHAMMERGPQTLKETSFNQAYGRDLMEAQEWCRKYMKSGNVKDLTQAWDLYYHVFRRISK
modifications: fluorescently labeled using Lys-tRNA with FluoroTect Green (labelled lysines, positions not stated)
notes: domain: Frb domain of Frap; N-terminal GST fusion expressed in rabbit reticulocyte lysate; linker not described; also called Prey; Frb domain of Frap; not shown: GST, N-terminal fusion partner encoded by Flexi vector pFN2A (Promega)

One test has as its target T1, GST-cFos (UniProt P01100 1-380, fluorescently labeled using Lys-tRNA with FluoroTect Green (labelled lysines, positions not stated)).
T1 construct: N-terminal GST fusion expressed in rabbit reticulocyte lysate; also called Prey; not shown: GST, N-terminal fusion partner encoded by Flexi vector pFN2A (Promega)
As to the kind of experiment: HaloLink resin pull-down, lane 3: HT alone as bait, no crosslinker; release of fluorescent prey read on gel.

The test “HaloTag (HT) alone” concerns the target B1. The test is described as follows: HaloLink resin pull-down, lane 1: HT alone as bait, 2 uM rapamycin, no DTTSP; release of fluorescent prey read on gel; text: showed no background binding of Prey. The method, then: Remove final wash solution and add protein-protein crosslinked material to resin. Incubate at 22° C. for one hour. Wash resin 5×1 mL with 1×TBS+0.05% IGEPAL as described above. Remove final wash. At this point, the crosslinked protein-protein complex has been covalently captured and purified on the resin and can be resuspended in the desired buffer. In samples treated with the crosslinker DTTSP, resupend resin in 1×SDS Loading buffer containing 5 mM β-Me and boil at 95° C. for 5 minutes to reverse the protein-protein crosslinks. Analyse samples using SDS gel electrophoresis.

The results in this text go back to patent US20070224620A1 (PROMEGA, published 2007).

T1 sequence (P01100 whole entry, the tested form may be a part): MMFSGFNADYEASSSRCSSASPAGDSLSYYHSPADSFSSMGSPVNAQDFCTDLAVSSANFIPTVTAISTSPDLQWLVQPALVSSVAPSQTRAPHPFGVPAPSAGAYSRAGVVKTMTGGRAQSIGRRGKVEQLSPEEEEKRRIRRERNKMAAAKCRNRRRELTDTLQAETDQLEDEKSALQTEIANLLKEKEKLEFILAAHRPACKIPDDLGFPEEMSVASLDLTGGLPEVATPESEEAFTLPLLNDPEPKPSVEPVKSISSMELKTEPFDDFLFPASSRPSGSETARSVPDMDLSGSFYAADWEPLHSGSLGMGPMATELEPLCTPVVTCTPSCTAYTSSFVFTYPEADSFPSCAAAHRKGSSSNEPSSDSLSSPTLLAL

Regarding B1, the binding result with GST-cFos was “no binding”.
With B2, the binding result in the test with HaloTag (HT) alone was “no binding”.
